Numbering of substitutions follows the chain as printed.
Experiments:
[1] = biological target: T1, Baboon EL-C2 tag (baboon, UniProt Q9Y5X9 21-500 (human entry), limits assumed); experiment: cell-based or functional assay
T1 chain: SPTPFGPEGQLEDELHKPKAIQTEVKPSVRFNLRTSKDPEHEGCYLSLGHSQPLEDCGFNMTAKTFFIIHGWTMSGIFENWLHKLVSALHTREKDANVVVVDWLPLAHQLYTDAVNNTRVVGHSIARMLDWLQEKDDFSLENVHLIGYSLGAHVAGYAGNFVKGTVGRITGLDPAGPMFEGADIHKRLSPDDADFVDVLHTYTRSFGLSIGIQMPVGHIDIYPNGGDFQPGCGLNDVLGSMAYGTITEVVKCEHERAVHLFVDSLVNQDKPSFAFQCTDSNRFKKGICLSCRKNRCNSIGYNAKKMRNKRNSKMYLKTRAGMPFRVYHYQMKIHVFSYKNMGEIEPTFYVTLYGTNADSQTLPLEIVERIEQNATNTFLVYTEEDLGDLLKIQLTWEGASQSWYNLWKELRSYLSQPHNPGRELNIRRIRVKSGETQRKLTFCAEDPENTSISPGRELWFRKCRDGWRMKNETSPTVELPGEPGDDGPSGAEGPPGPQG

[2] = biological target: T2, cynomolgus monkey EL-C2 tag (cynomolgus monkey, UniProt Q9Y5X9 21-500 (human entry), limits assumed); experiment: cell-based or functional assay
T2 chain: T1 chain with E12A, E141G

[3] = biological target: T3, human EL[331-459]-mouse EL-C2 tag (human/mouse chimera, UniProt Q9WVG5 21-500 (mouse entry)); experiment: cell-based or functional assay
T3 chain: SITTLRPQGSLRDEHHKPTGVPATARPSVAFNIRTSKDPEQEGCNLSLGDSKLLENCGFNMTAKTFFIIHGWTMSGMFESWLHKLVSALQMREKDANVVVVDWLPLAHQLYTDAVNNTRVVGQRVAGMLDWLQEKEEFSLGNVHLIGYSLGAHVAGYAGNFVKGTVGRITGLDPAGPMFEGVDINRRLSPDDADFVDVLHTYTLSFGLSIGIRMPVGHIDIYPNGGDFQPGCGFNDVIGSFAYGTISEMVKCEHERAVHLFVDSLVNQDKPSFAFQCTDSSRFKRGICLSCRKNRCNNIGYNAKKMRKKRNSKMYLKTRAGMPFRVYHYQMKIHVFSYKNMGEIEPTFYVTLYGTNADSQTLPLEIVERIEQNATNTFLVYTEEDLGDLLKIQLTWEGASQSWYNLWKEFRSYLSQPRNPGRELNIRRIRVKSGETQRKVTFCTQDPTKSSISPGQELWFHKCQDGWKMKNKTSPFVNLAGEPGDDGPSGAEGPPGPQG

[4] = biological target: T4, rabbit EL-C2 tag (rabbit); experiment: cell-based or functional assay
T4 chain: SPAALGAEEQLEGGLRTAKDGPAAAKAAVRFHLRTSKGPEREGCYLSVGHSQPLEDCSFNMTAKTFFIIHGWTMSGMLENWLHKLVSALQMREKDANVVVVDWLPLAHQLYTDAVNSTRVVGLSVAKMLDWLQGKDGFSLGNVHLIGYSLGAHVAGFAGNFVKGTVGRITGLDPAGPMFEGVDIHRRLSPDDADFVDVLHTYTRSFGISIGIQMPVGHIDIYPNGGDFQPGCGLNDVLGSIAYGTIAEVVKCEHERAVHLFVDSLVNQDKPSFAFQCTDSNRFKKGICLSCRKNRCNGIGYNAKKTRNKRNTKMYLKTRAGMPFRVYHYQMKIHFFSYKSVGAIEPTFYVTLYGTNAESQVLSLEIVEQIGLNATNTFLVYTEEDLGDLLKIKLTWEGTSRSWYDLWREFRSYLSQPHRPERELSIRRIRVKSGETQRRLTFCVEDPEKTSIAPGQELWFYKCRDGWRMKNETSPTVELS

[5] = biological target: T5, human EL-411-459 fragment (human); experiment: sandwich ELISA with human EL fragment lysate, as Example 10
T5 construct: Used as HEK293 lysate
T5 chain: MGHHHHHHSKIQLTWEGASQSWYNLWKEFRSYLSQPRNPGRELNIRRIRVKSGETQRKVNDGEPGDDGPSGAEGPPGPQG

[6] = biological target: T2, cynomolgus monkey EL-C2 tag; experiment: ELISA-type titration, A450 against antibody concentration; protocol not described in the text
[7] = biological target: T1, Baboon EL-C2 tag; experiment: Biacore SPR; EL heparin extract captured by anti-C2-tag antibody on CM5, antibody as analyte, bivalent fit
Method: (§1) The binding affinities of anti-EL antibodies were measured using Biacore. Anti-C2-tag antibody was immobilized on a sensor chip CM5 (GE HealthCare) using amine-coupling and baboon EL heparin extract or cynomolgus monkey heparin extract diluted with HBS-P (GE Healthcare) was added and EL were captured on the sensor chip. Then anti-EL antibodies diluted with HBS-P were added and the binding affinities were calculated by bivalent fitting of BIAevaluation software (FIG. 9A-G).

[8] = biological target: T2, cynomolgus monkey EL-C2 tag; experiment: as above
Method: as §1

[9] = biological target: T1, Baboon EL-C2 tag; experiment: Biacore SPR; EL captured by anti-C2-tag antibody, antibody as analyte, bivalent fit; column head prints nM, kd/ka gives M
Method: as §1

[10] = biological target: T2, cynomolgus monkey EL-C2 tag; experiment: as above
Method: as §1

- Neutralizing activity_IC50 [1]: 7.2 nM
- Neutralizing activity_IC50 [2]: 5.9 nM
- Neutralizing activity_IC50 [3]: 15 nM
- Neutralizing activity_IC50 [4]: 391 nM
- binding result [5]: no binding
- EC50 (read off the curve) [6]: ~7 ng/mL
- koff [7]: 0.00029 s⁻¹
- kon [7]: 110000 M⁻¹ s⁻¹
- koff [8]: 0.0001 s⁻¹
- kon [8]: 160000 M⁻¹ s⁻¹
- Kd [9]: 2.6 nM
- Kd [10]: 0.63 nM
B1: 41H8 antibody (antibody, IgG1, V domains shown)
VH: QVTLKESGPGILQPSQTLSLTCSFSGFSLSTYGMGVGWIRQPSGKGLEWLAHIWWNENKYYNTDLKSRLTISKDTSNNQVFLKIASVDTADTATYYCARIGPGVPFDYWGQGTTITVSS
VL: DIQMTQSPSSLSASLGGKVTITCKASQDINKFIAWYQHKPGKGPRLLIHYTSTLQPGIPSRFNGSGSGRDYSFTISNLEPEDIATYYCLQYDILTWTFGGGTKLEIK
